Protein production data for 24 sequences are collected here from a protein production outcome set (Wang et al. 2014).

A short description of the data set: label from the status in PepcDB records.
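Note: failed if final PepcDB status was selected cloned or expressed and not failed if soluble or beyond.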

Take “MYESANVSDDADRTAFRRAEKKYKLYYEQDSKFSRKKKLPKPIDLSELLDFNLISQNFNNDGVLPDGIRVSKVDSSPVFCIDNRPGFYFIPDALSLKEQCKWIKESLTSFPQPPNRTNHNAIYGPIDDLFDSAKENKVLVQDDLTNNKWKFYEEVDIEKATRSSCKSVSASVLLRKLRWSTLGLQFDWSKRNYDVSLPHNNIPDALCQLAKTHAAIAMPDGEEFRPEGAIVNYFGIGDTLGGHLDDMEADWSKPIVSMSLGCKAIFLLGGKSKDDPPHAMYLRSGDVVLMAGEARECFHGIPRIFTGEENADIGALESELSHESGHFFAEYIKTSRININIRQVF”: the protein production result is listed as “not failed”.

For “MYFTEFLTVALIHLLAVASPGPDFAVVVRESVTHGRRAGTWTALGVGCAIFLHVGYSLLGIGLIVSQSIVLFNALKWLAAAYLLYIGYKALRAQPAKPAADDLHKEAGVRTARGAFTSGFVTNGLNPKATLFFLSLFTVVINPHTPLAIQAGYGVYLAVATAVWFCLVAMLFSQQRVRAGFARMGHWFDRTMGAVLIAIGVKLAFTEMH”, the protein production result is “failed”.

For the sequence “MYGEGDFYTIKSKRDYEFYLEADRLALGKNCKKPRLIGDDIWKFQRLLRQAEYYSNCQNSLLHKLYLKYILFRFHRMSIRLGFSIPINVFGPGLCIAHRGTIVVNKGARVGENCRIHACTNIGSGRDNIFLAPKIGNGVYIGPGAKIFGSVEIADNIAIGANSVVNRSFYERGISIAGVPAKKISNKGSDGMVIAATKTVSVPVSQETILEHHHHHH”, the protein production result is given as “not failed”.

As to “MYGIQTSASLPLTRPQALETQAAAPQSDAPDASAGQTRAAPQGSAAPALAAARAKADELGQAAREVRASVERQTAYETRLAAQRSAAAFSGGEPPQARREAPGAELDEARNAQTVSARLFEGNLKGVAQSGHAMSAEQKQALQSGLDDVFADAPPQARSAGAPMLYSANAAAGQGMADSDLWDMISDQIGKIKDNYLGVYENVVGQYTDFYKAFSDILSQMANWIKPGGDGNKVKLNVDALKAALEKLKKDFSLGDNLDNKKAVLFPAQSKDGGIQGGSESDARKWAKEMGLPDAPPPGFSCVQKAADGNWVVVVDMTPIDTMIRDVGALGSGTELELDNAKFQAWQSGFKAQEENLKNTLQTLTQKYSNANSLFDNLVKVLSSTISSCLETAKSFLQILEHHHHHH”, the protein production entry was “not failed”.

In the case of “MYHILFRRKSIVPAYNESTTIVSSIDSLLHLDYEAYEIIVVDDGSSDNTSDVLKEEFALMKISNTIDSIIATQTCKDVFQRQVGKVKLTLIVKENGGKGDALNMGINAANYDYFLCLDADSMLQVDSLSQISKSIQVDPTVIAVGGLVQVAQGVKIEQGKVASYRLPWRIIPCAQALEYDSSFLGARIFLDYLRANLIISGAFGLFKKDLVKAVGGYDTQTLGEDMELVMKLHFFCRNNNIPYRICYETDAVCWSQAPTNLGDLRKQRRRWYLGLYQCLKKYKSIFANYRFGAVGSISYIYYILFELLTPFIECFGIVIIFLSLLFNQLNIPFFISLVSLYIFYCVLITLSSFLHRIYSQQLVIGILDIVKVFYIAVFRYLILHPVLTFVKVASVIGYKNKKMVWGHITREKQMKDFETSVT”, the protein production entry is “failed”.

As for “MYIPKYFKVTNAEEIWNFVQENSFGTVVTTEQGKPIATHLPLGFNKKDDHYYITGHFAYGNPQWRTFEACEDVLVMFQGPHAYISSSWYSRENVPTWNYQAVHMYGKASMLEKDELAEELTIMLEQKTPTQAFSVLWDKLSPKLLESELKGIVGFKIKVEDIQAAYKLSQNRNETDYMNVIEQLQNEENPNAKQMAELMEDKLKKQI”, the protein production entry is “not failed”.

In the case of “MYKATVIIKLKKGVLNPEGRTIQRALNFLGFNNVKEVQTYKMIDIIMEGENEEKVKEEVEEMCKKLLANPVIHDYEIKVEKIE”, the protein production result was “not failed”.

On to “MYKDKVAVIMSVYKSDNPIDFNVAVNSIIRQTLKCDIFIYQDGPVSRELKSAINRFRKFNNIFIFVSEENKGLAYALNYLIDSCLLNNYQYIARMDSDDISHKNRMSIQVNFLEDNSDIHVVGSYCKEFGADCSLAEKKLPITHNDLLNFSITRCPFIHPSVMFRTSIFYNGLRYPVNTKYTEDMAFWFILLDLGYKFENIPETLIDYRMTENTVLRRRGFDKALSEVFIRFKYMIKFKKITVKNVSFIIGRFVFHLLPPNAIKYLYKKMR”, for which the protein production result is listed as “failed”.

As for “MYKEGACLYRNPLRSKSDVKDWRMEGGGQISFDDHSLHLSHVQDEAHFVFWCPETFPDGIIVTWDFSPIEQPGLCMLFFAAAGIRGEDLFDPSLRKRTGTYPEYHSGDINALHLSYFRRKYAEERAFRTCNLRKSRGFHLAAMGADPLPSPDDADSPYRMKLIKDKGYVHFSINGLPILEWMDDGSTYGPVLTKGKIGFRQMAPMKAVYRDFAVHQAVRR”, the protein production result is “not failed”.

“MYKHILVPVDLNEQGFADKAVQLAVWHAKHSNAEIHLLNVLPGIHMSMVATYFPKDAAAQMKNDVRAQLKAFAEKHIAEEVVYKLHIAEGKPYATILDYAERLGADLIVMPSHKRSRIDKVMLGSVASKVVENSPINVMVVKPQG”: the protein production entry is listed as “not failed”.

With “MYKLGVFLLATLLSANTQKVSDIAKDIQHKETLLKKTHEEKNQLNSRLSSLGEAIRSKELQKAEMERQMIALKKSLEKNRNESLAQEKVLTNYRKSLDHLQKKRSFLQKRVFDTLLQDFLFSQALKGQNLASSNDVVLQVAFENLHQSTLSKMSQLSQEEKELNTQALKVKNSIQKISSIIDEQKTREVTLKSLKTEQDKLILSMQKDYAIYNQRLTLLEKERQNLNALLKRLNIIKQNRENEEKVSLKKSSQALEVKQVASSYQNINTTSYNGPKTIAPLNDYEVVQKFGPYIDPVYNLKIFSESITLVSKTPNALVRNVLDGKIVFAKEINMLKKVVIIEHKNGIRTIYSQLDKIAPTIKSGMRIQKGYVLGRIDQRLGFEVTMREKHINPLELIARN”, the protein production entry is on record as “failed”.

As for “MYKTIIMPVDVFEMALSDKAVRHAEFLAQQDGVIHLLHVLPGSASFTMSRFTADLRRFEEHLQHEAETRLQTMVSHFSIDPSRIKLHVRFGSVRDMVNELASEINADVVVIGSRNPSISTHLLGSNASSVIRHAHIPVMVVR”, the protein production entry is reported as “failed”.

Consider “MYLLNDKVAHELKKPFGKVYKELPSIEGKVVSIGDVTTKHLLSNGIIPDLSILDFKTKRNIPVDIPHKFKTIFEVENPQGCISDEAIERIKYLSTIHDRDMALIIKGEEDLLTIPVIKYFPEDTSVIYGQPDEGMVLLKITDELKQKIEKLLKEMEER”, for which the protein production result was “failed”.

Take “MYLNPKLSYMQFFMGFLFVITFILATFNICSYLVAIVCMALLNLTFVIGAFQQKQYTSFVIALVMSFSFSIVAIVFYIK”: the protein production result is reported as “failed”.

“MYLSLLKSLNRLSPRAWDFVQLTRIDKPIGIYLLLWPTLWAVWIAGKGSPSLNTVFIFVAGVFLMRAAGCVINDFADRKVDGHVKRTEQRPLVSGKVSSREALVLFAVLVSLSFVLVLFTNSTTIWLSFGGLALAACYPFMKRYTYYPQVVLGAAFSWGMPMAFTAETGELPAAAWLLYIANLLWTVGYDTYYAMVDRDDDLKIGVKSTAVLFGDADRVIILSLQGLALGCLALAGSRFELGAFFYMGLLVAAACFAWEFWSTRLRERDACFKAFLHNHWAGLAIFLGIVADYALR”: the protein production entry is given as “failed”.

For the sequence “MYLYLSLILLAFTLSLDSCSVGLTYGLRSVRIPLRSIIIIGMCSAAVMLVSMGIGHMIAKVFSPVIATRIGGLVLIGIGIWVLYQFFRSERKEEPKQEEKVWKLEIASLGLVIQILRKPTVADFDKSGTISAGEALLLGIALSVDSFGAGIGASLLGYAPAMMAILVAVMSSLFLFIGMKLGTVLSNMKWLQKFTFLPGVLLIIIGIWKM”, the protein production entry was “failed”.

As for “MYMDHFPTFGGYIFSMATYYSLIPLTLLIALRAKWDYIMRHYWRSVARGFIIAILIALPVTSILQFKLTGDYLYVYSLTKTGVCITSSCLISRMKENEYYKFNVTGLQKYGIPNLGIMQAYRLVDKKFNKLKWRYDVVNAVVIIRSLFPLPITEVWSYEVDPKESHKIIGLRKFYVYYPYNPGTLLSRAYDFEFTMFLWGSGGGVA”, the protein production result is on record as “failed”.

For the sequence “MYMSSLQSTRERVLGTPRRRYKVLVAKMGLDGHDRGAKVVARALRDAGFEVVYTGLRQTPEQVAMAAVQEDVDVIGVSILNGAHLHLMKRLMAKLRELGADDIPVVLGGTIPIPDLEPLRSLGIREIFLPGTSLGEIIEKVRKLAEEKRMREEAEASEQVGQA”, the protein production entry was “not failed”.

Take “MYNTVVYSIVVPLYNEELVIDENYMRLKKIMDSLKENYEIMYVNDGSKDSTMNKVEKICEKDKRIKLVNFSRNFGHQCAISAGMELSAGDAIIVIDADLQDPPEVIPQMIDKWKDGYDVVYGKRLKRKGESFLKKFTAKIFYRLLRSITNIDIPVDTGDFRLIDRKVCDTLSSLPERNRYVRGLVSWVGFKQTFVEFTRQERFAGASKYPLKKMLKLAFDGITSFSYKPLVASTYLGGLMFLLGLLAFIYVTAKNLYSHKTILTLGLILAINLCMFGLIFIILGILGQYIGRISDESKARPNYIIASTINYKENIKEVEPSEVKLN”: the protein production entry is given as “failed”.

“MYPSSSPGHRQYFLGVKSSLPLLWLMVFPALIGGVLNINPVQAQGTPYIPPPITPPPLSPSENPFDPSLFPTDPLIPSGETLTPLQRRRLIEALDALEAEALVLDQAGQGDQAFEVRYRSLRGRQRLGDLAEVEALGRIGAIAWEQGRNQDVMAIGQRLEDLQLSLTKDKAMSPELLTAFAKAYGQLHSLDSAIAVYQQMRREAQQQGDYRRENQALSMLGELYLAKFNYPAAAEVYETLLARATNARNSYYEGIYLQKLGEIYQQSAQPDNAIRIKEQLVQRRLQDGKPELVPDIQIAIGDHYLELEQPENASQAYQKAYTLAWSIKQLSTAAIALDKLGDLYLFSEQPNYALQIYKQLLQVQQQSYNYYGMMITYEKIAQLYIDAQQTSAALTAYQQALSLARSLKYSTKENNILNQIQTISGGTGS”: the protein production result was “failed”.

Take “MYPYIKLIATLFRAKNSPQMNLDEKSVLNCRAGLTDIDVFVELNNARHLTYMEFGRWDFAQRTGLLSLMRKNKWAFAVGGASVRYRRRIAFWKKFTVTTQVICHDGRWFYFLQETHIKDKVCSSALIKAAFTSKQGLVPATEVLAAYGKTTPNFDVPDWVNAWIDAESQRPWPLEHHHHHH”: the protein production entry is “not failed”.

Take “MYQDRQGVVGGGGGGGSAPHGIILAVVVALVVLVPFFIGDSGEAITDAIAELLSPVGLLLLPIILLLTIQFLSSERGSFVSAIFSTGEPESIHRVSGSPVGVALFLVLILFLLYYRFSIFGGDDGSDD”: the protein production entry is reported as “failed”.

As for “MYQTQTNKEKFVLFLKLFIPVLIYQFANFSATFIDSVMTGQYSQLHLAGVSTASNLWTPFFALLVGMISALVPVVGQHLGRGNKEQIRTEFHQFLYLGLILSLILFLIMQFIAQPVLGSLGLEDEVLAVGRGYLNYMLIGIMPLVLFSICRSFFDALGLTRLSMYLMLLILPFNSFFNYMLIYGKFGMPRLGGAGAGLGTSLTYWAIFIVIIIVMSLHPQIKTYHIWTLERIKAPLIIEDIRLGLPIGLQIFAEVAIFAVVGLFMAKFSSIIIAAHQAAMNFSSLMYAFPLSISTALAITISFEVGAERFQDANTYSRIGRLTAVGITSGTLLFLFLFRENVAAMYNSDPHFVAITAQFLTYSLFFQFADAYAAPVQGILRGYKDTTKPFMIGAGSYWLCALPLAVILEKNSQLGPFAYWIGLITGIFVCGLFLNQRLQKIKKLYY”, the protein production entry is listed as “failed”.

Take “MYRIIEAPNSGKYPFSHSLLIGKSCIIDTGSGEALAPLRVDCVLNTHWHEDHIAMNSIGRKVLAHPLDAEAIESYEEFRRRYGIGDSVRLFINFEFGQVDDVFEDGEQLEFEGVSVEVIHTPGHSAGHCCFVINNEAVFLGDIDLTSFGPWYGCLDCDVDDFVRSVKKMMREVERRDIEIAIPSHGRPVYGKEEIIGAMREYLKKIFERDKAIRELVRLGVDPVGKGIIYRKIPEPREIYLHFEKIMVEKHLTTSLDEFCLDLEHHHHHH”: the protein production result was “failed”.
